This is an account of results in patent publication US20250011804A1 (PIONEER HI BRED INTERNATIONAL, published 2025).

The chains are these.
B1: ZmMADS7-LIKE (other)
chain: MGRGRVELKRIENKINRQVTFAKRRNGLLKKAYELSVLCDAEVALIVFSNRGKLYEFCSGPSITRTLERYEKNSYAGPDTAVQNKENELVQNSRNEYLKLKAKVDNLQRTQRNLLGEDLGSLGVKELDQLEKQIDSSLSHIRSTRTQHMLDQLTDLQRREQMMCEANKCLRRKLEETSNQVHGQVWEHGANLLLGYERHSSPQQAPSHVGNGLFFHPLEAAAEPTLQIGFAPEHMNNFMPAWLP
notes: Tested as prey fusions; also called zmm7 - Zea mays MADS7; GRMZM2G097059
B2: ZmMADS24 (other)
chain: MGRGKVVLQRIENKISRQVTFAKRRNGLLKKAYELSILCDAEVALVLFSHAGRLYQFSSSSNLLKTLERYQRYIYASADAAVPSSDQMQNNYQEYVKLKARVEVLQHSQRNLLGEDLALLSPSELDQLENQVDKTLKQIRSRKTQVLLDELCDLKRKEQMLQDANRVLKRKLGEFEAEAASPPQLAWQGEGGMLSHDPPQPEHFFQALESNPCLQPTYHTMDMNQQPVPAPGGCYPAWMS
notes: Tested as prey fusions; also called zmm24 - Zea mays MADS24; GRMZM2G087095
B3: ZmSF2 (other)
chain: MTRRNGCTIYVGNLPGDIREREVDDLFYKGRQCGLRMYGRIVEIDLKIPPRPPGFAFVEFEDARDAEDAIYGRDGYNFDGHRLRVELAHGGRGTSSFDRSSSYSSAGQRGASKRSDYRVMVTGLPSSASWQDLKDHMRRAGDVCFTDVYREAGATIGIADYTNYEDMKHAIRKLDDSEFRNAFSRTYVRVREYDARRSRSRSRGRNRSKSRSRSHSHSYSRSRSCSYSKSRSPRSRSASESKSPVKARSPSRSPPVSPRRDKSASRSPARSKSLPRSCSPAKSE
notes: Tested as prey fusions; also called Zea mays splicing factor 2; GRMZM2G170365
B4: ZmZAG2 (other)
chain: MGRGRIEIKRIENNTSRQVTFCKRRNGLLKKAYELSVLCDAEVALIVFSSRGRLYEYANNSVKATIERYKKAHTVGSSSGPPLLEHNAQQFYQQESAKLRNQIQMLQNTNRHLVGDSVGNLSLKELKQLESRLEKGISKIRARKSELLAAEISYMAKRETELQNDHMTLRTKIEEGEQQLQQVTVARSVAAAAAAATNLELNPFLEMDTKCFFTGGPFATLDMKCFLPGSLQQMLEAQQRQMLATELNLGYQLAPPGSDAADNNPHHQF
notes: Tested as prey fusion (GAL4 AD in Y2H/HY1H, nGFP with 30x glutamine linker in BiFC); also called zag2 - Zea AGAMOUS homolog2; GRMZM2G160687
B5: ZmSFT-LIKE (other)
chain: MGSVLLPTLRLKSEVDAAIRDTLDKVLVLRFGRATDATCLHLDDILDKSSWDISKFAMVALVDMDSEEIQVYIDYFDITLVPATIFFFNAHHMKMDSGTPDHTKWIGSFSSKQDFIDVVEAIFRGAMKGKLIVSCPLPPERIPRFQLLFKDV
notes: Tested as prey fusions; also called ZmSFT-like - Zea mays mRNA splicing factor thioredoxin-like U5 snRNP; GRMZM2G086779
B6: ZmMADSL6 (other)
chain: MGRGRVELKRIENKINRQVTFAKRRNGLLKKAYELSVLCDAEVALIIFSNRGKLYEFSSTQSMPKTLEKYQKCSFAGPETALQNRENEQLKSSRNEYLKLKARVDNLQRTQRNLLGEDLESLGIKELEHLEKQLDSSLKHIRSTRTQHMVDQLTELQKKEQMFCEANKCLRRRLEESNQVIWQHAWEQSERHSEVQPQQLNGNNFFHPLDGAGEPTLQIGYPSEALTSSCMTTFLPPWLP
notes: positive control of the BiFC assay (full length); Tested as prey fusions; also called WT ZMMADSL6; full length ZmMADSL6
B7: Zmm28 transcription factor (other)
chain: MGRGPVQLRRIENKINRQVTFSKRRNGLLKKAHEISVLCDAEVALIVFSTKGKLYEYSSHSSMEGILERYQRYSFEERAVLNPSIEDQANWGDEYVRLKSKLDALQKSQRQLLGEQLSSLTIKELQQLEQQLDSSLKHIRSRKNQLMFDSISALQKKEKALTDQNGVLQKFMEAEKEKNKALMNAQLREQQNGASTSSPSLSPPIVPDSMPTLNIGPCQHRGAAESESEPSPAPAQANRGNLPPWMLRTVK
notes: MADS-box transcription factor; also called Zm00001d022088

The target in one data set is B7. Nature of the data set: BiFC, maize protoplasts, flow cytometry. The protocol:
(§1) Potential interaction partners of ZMM28 were further tested in vivo with a bimolecular fluorescence complementation (BiFC) assay. Following transfection of maize protoplasts, fluorescence was measured indicating interaction between nGFP-Prey and cGFP-ZMM28 (Bait). As BiFC is prone to false-positive self-assembly independent of protein-protein interaction, flow cytometry was used to quantify the BiFC signal and reduce the occurrence of false positives. All signal comparisons were made to a negative control providing a baseline for self-assembly. The control was created by deleting 47 amino acids from the leucine zipper-like K-domain of ZMMADSL6, a protein interaction partner of ZMM28 identified from bioinformatics prediction and Y2H experiment. […] Of the 12 tested protein interactions, eight were confirmed via the BiFC assay with almost half the interactions confirmed positive in both BiFC and Y2H assays (Table 2a). Table 2: ZMM28 protein-protein interactions, transcription, direct targets.
(§2) Maize seedlings were germinated and grown in Fafard Super Fine Germination Mix for 6 days in a lighted growth chamber (30° C., 60% RH, 24 h light) and were transferred to a dark growth chamber (30° C., 60% RH, 0 h light) and grown for an additional 4 days to V1. Seedlings were sub-irrigated with deionized water. Maize protoplasts were isolated from these seedlings and were transiently transformed by PEG-mediated transfection as described by Yoo et al.63 with the addition of 0.6 M mannitol in the enzyme, WI, W5 and MMG solutions. Protoplasts were transfected with 10 pmol bait+10 pmol prey plasmid DNA per 3×10^4 cells. Protoplasts were incubated on a 12-well (1 mL WI) plate for 20 hours at RT before samples were analyzed.
(§3) BiFC signals were detected by flow cytometry performed using an Attune™ Flow Cytometer (Thermo Fisher Scientific, Waltham, MA, USA) with a Blue/Violet configuration (488 nm, 20 mW laser and a 405 nm, 50 mW laser).
(In flow cytometry, cells or beads pass a laser one at a time.)
As to B1, the “BiFC positive cell count” value was 438 cells out of 10,000. Take B2: the “BiFC positive cell count” value is 2100 cells out of 10,000. Take B3: the “BiFC positive cell count” value was 715 cells out of 10,000. With B4, the “BiFC positive cell count” value was 125 cells out of 10,000. For the molecule B5, the “BiFC positive cell count” value is 2330 cells out of 10,000.

As for B6, the “BiFC positive cell count” value is 4060 cells out of 10,000.

The next data set deals with the molecule itself. Kind of data set: BiFC, maize protoplasts, flow cytometry. How it is done:
as §1, §2, §3
For B7, the “BiFC positive cell count” value was 1010 cells out of 10,000.
